Patent US20250215073A1 (TOKUSHIMA UNIVERSITY, published 2025)

T1: FLT4-Fc (fusion product of the extracellular region of the human FLT4 protein and mouse antibody Fc) (human; mouse, UniProt P35916 25-775)
T1 construct: extracellular domain; Negative control antigen in the EIA
T1 sequence (looked up): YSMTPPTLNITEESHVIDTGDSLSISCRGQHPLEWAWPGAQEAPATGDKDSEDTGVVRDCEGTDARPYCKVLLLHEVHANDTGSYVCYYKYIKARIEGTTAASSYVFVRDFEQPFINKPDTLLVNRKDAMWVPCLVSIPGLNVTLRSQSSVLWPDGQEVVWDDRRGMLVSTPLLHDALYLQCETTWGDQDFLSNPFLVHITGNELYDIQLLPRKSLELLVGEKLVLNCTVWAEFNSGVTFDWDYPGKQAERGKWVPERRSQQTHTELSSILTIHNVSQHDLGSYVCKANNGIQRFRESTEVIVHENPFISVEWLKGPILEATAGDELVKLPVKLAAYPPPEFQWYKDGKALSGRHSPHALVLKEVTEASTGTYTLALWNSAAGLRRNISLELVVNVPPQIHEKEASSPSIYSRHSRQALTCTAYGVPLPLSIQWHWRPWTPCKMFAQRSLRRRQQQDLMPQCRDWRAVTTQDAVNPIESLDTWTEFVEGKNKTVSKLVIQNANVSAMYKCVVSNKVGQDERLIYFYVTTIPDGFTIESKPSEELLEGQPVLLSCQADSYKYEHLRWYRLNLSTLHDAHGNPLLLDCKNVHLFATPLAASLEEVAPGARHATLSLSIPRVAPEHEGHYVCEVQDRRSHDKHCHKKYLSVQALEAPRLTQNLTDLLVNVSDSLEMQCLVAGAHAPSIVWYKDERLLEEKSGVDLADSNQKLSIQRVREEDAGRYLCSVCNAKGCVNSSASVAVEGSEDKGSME


Legend:
human c-KIT = target: T2, human c-KIT (human, UniProt P10721 26-976); assay: flow cytometry on fixed GIST-T1 cells, 10 µg antibody
T2 construct: whole, on cells; Endogenous c-KIT of the GIST cell line GIST-T1 and the small cell lung cancer line SY; also called c-KIT on GIST-T1 cells; c-KIT on SCLC cell line SY
Protocol: GIST-T1 cells were collected with trypsin (on ice), and 1×10⁶ cells were dispensed into 1.5 mL tubes. The cells were washed three times with 1 mL of PBS-BSA-Azide. To each tube, 1 mL of 4% paraformaldehyde cooled to 4° C. was added and mixed by gentle pipetting on ice. The tubes were returned to room temperature and left to stand for 15 minutes (the subsequent process was carried out at room temperature). The cells were washed three times with 1 mL of PBS-BSA-Azide.
To GIST-T1 cell pellets, 100 μL of each antibody solution prepared with PBS-BSA-Azide was added and mixed. The mixtures were prepared to contain 10 μg of the IR700-labeled mouse anti-c-KIT (12A8) antibody, 10 μg of the IR700-labeled humanized anti-c-KIT (12A8) IgG1 antibody, and 10 μg of the IR700-labeled humanized anti-c-KIT (12A8) Fab antibody, respectively. Each mixture was covered with aluminum foil in the dark and allowed to react at room temperature (from 20° C. to 25° C.) for 60 minutes (the subsequent process was carried out in the dark as much as possible). Washing was performed three times by adding 1 mL of PBS-BSA-Azide. After adding 500 μL of PBS-BSA-Azide and mixing, each mixture was passed through a filter (42-μm nylon mesh, AS ONE Corporation). Measurement was performed using FACS (CytoFLEX (Beckman Coulter)) with excitation at 638 nm and 712/25BP.

[1] = target: T1, FLT4-Fc (fusion product of the …); assay: EIA, antigen solid-phased in 96-well plate, HRP anti-human Kappa detection
Excerpt: Since the antigen recognition site of the anti-c-KIT (12A8) antibody is the extracellular region of the human c-KIT protein, a fusion protein (c-KIT-Fc) of the c-KIT extracellular region and the Fc region of the mouse antibody was used as the antigen for EIA. A fusion product of the extracellular region of the human FLT4 protein and mouse antibody Fc (FLT4-Fc) was used as a negative control.
Each above was solid-phased in a 96-well plate, blocked with a BSA solution, washed, sufficiently dried, and then stored in a refrigerator until use. The humanized anti-c-KIT (12A8) IgG1 antibody-producing clone culture supernatant was diluted 2-fold to 64-fold and added to an antigen solid-phase plate and a negative control plate so as to perform a primary reaction. The same was performed for the humanized anti-c-KIT (12A8) Fab antibody. The primary reaction was carried out for one hour at room temperature, and then each well was washed with phosphate-buffered saline (PBS). The HRP-labeled anti-human Kappa chain antibody was added as a secondary antibody and reacted for 30 minutes at room temperature. Thereafter, each well was washed with PBS, and the substrate OPD (Sigma-Aldrich) was added to develop a color. IN sulfuric acid was added to stop the reaction, and the absorbance at 490 nm was measured.

T2 sequence (P10721 26-976): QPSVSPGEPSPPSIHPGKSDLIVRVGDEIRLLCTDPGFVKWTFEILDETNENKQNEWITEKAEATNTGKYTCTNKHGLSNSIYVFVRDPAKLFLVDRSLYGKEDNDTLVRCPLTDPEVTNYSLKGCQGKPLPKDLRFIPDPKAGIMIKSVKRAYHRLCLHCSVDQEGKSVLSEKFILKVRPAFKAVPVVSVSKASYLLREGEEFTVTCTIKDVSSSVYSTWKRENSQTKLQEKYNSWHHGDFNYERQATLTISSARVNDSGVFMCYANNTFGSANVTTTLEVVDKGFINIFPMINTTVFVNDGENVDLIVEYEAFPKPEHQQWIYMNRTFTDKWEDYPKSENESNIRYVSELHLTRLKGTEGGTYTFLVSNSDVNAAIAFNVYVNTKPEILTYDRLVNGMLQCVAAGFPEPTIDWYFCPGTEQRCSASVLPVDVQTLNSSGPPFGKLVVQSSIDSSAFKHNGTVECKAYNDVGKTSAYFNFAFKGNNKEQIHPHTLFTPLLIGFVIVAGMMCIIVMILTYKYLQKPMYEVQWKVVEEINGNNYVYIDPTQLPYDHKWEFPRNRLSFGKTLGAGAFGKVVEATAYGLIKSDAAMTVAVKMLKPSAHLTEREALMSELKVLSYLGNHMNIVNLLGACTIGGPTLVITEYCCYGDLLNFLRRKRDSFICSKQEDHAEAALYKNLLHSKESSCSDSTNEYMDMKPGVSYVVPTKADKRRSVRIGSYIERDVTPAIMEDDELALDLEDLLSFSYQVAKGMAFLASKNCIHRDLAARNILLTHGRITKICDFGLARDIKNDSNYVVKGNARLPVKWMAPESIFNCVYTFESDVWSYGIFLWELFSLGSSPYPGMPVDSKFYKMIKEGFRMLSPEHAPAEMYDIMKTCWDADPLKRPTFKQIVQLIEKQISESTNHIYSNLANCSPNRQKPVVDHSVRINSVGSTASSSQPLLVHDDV

Binder	binding result (human c-KIT)	binding result [1]
IR700-labeled mouse anti-c-KIT (12A8) antibody (whole IgG) (antibody, V domains shown, IR700 (IRDye700DX) conjugated, residues not stated, Mouse IgG1 12A8 conjugated with IRDye700DX; also called IR700-12A8 (whole IgG); IR700-12A8 Whole IgG) VH: EVQLQQSGPELVKTGTSVKISCKASGYSFSNYYMHWVKQSHGKSLEWIGYISCFNGATTYNQKFRGKATFTVDTSSSTTYMQFNSLTSEDSAVYFCARRTAGAMDYWGQGTSVTVSS VL: EVVVTQTPLSLPVSFGDQVSISCRSSQSLANSYGNTYLSWYLHKPGQSPQLLIYGISNRFSGVPDRFSGSGSGTEFTLEISTIKPEDLGMYYCLQGTHQPYTFGGGTKLEIKR	binds	
IR700-labeled humanized anti-c-KIT (12A8) IgG1 antibody (antibody, V domains shown, IR700 (IRDye700DX) conjugated, residues not stated, The antibody was purified on protein A before labeling; also called Humanized Whole IgG) VH: QVQLVQSGAEVKKPGASVKVSCKASGYSFSNYYMHWVRQAPGQRLEWMGYISCFNGATTYNQKFRGRVTITRDTSASTAYMELSSLRSEDTAVYYCARRTAGAMDYWGQGTLVTVSS VL: DIVMTQTPLSLSVTPGQPASISCRSSQSLANSYGNTYLSWYLQKPGQSPQLLIYGISNRFSGVPDRFSGSGSGTDFTLKISRVEAEDVGVYYCLQGTHQPYTFGGGTKVEIKR	binds	
humanized anti-c-KIT (12A8) Fab antibody (Fab, V domains shown, Recombinant Fab, tested in the EIA as CHO-K1 culture supernatant; also called Fab fragment of the humanized anti-c-KIT (12A8) antibody) VH: QVQLVQSGAEVKKPGASVKVSCKASGYSFSNYYMHWVRQAPGQRLEWMGYISCFNGATTYNQKFRGRVTITRDTSASTAYMELSSLRSEDTAVYYCARRTAGAMDYWGQGTLVTVSS VL: DIVMTQTPLSLSVTPGQPASISCRSSQSLANSYGNTYLSWYLQKPGQSPQLLIYGISNRFSGVPDRFSGSGSGTDFTLKISRVEAEDVGVYYCLQGTHQPYTFGGGTKVEIKR		no binding
humanized anti-c-KIT (12A8) IgG1 antibody (antibody, V domains shown, Human IgG1 / kappa, tested in the EIA as CHO-K1 culture supernatant; also called humanized c-KIT (12A8) IgG1; humanized anti-c-KIT (12A8) antibody (whole IgG)) VH: QVQLVQSGAEVKKPGASVKVSCKASGYSFSNYYMHWVRQAPGQRLEWMGYISCFNGATTYNQKFRGRVTITRDTSASTAYMELSSLRSEDTAVYYCARRTAGAMDYWGQGTLVTVSS VL: DIVMTQTPLSLSVTPGQPASISCRSSQSLANSYGNTYLSWYLQKPGQSPQLLIYGISNRFSGVPDRFSGSGSGTDFTLKISRVEAEDVGVYYCLQGTHQPYTFGGGTKVEIKR		no binding
IR700-labeled humanized anti-c-KIT (12A8) Fab antibody (Fab, V domains shown, IR700 (IRDye700DX) conjugated, residues not stated, The Fab was purified on Kan Cap G before labeling; also called Humanized Fab) VH: QVQLVQSGAEVKKPGASVKVSCKASGYSFSNYYMHWVRQAPGQRLEWMGYISCFNGATTYNQKFRGRVTITRDTSASTAYMELSSLRSEDTAVYYCARRTAGAMDYWGQGTLVTVSS VL: DIVMTQTPLSLSVTPGQPASISCRSSQSLANSYGNTYLSWYLQKPGQSPQLLIYGISNRFSGVPDRFSGSGSGTDFTLKISRVEAEDVGVYYCLQGTHQPYTFGGGTKVEIKR	binds	
